The results in this text go back to article doi:10.1101/2025.05.28.656718 (bioRxiv, 2025).

B1: Recombinant PKM1 (His-SUMO tag removed) (enzyme)
chain: not shown
B2: Recombinant PKM2 (His-SUMO tag removed) (enzyme)
chain: not shown
B3: Recombinant SARM1 (affinity tags removed by TEV protease) (natural protein, human, UniProt Q6SZW1 28-724, looked up)
chain: LAVPGPDGGGGTGPWWAAGGRGPREVSPGAGTEVQDALERALPELQQALSALKQAGGARAVGAGLAEVFQLVEEAWLLPAVGREVAQGLCDAIRLDGGLDLLLRLLQAPELETRVQAARLLEQILVAENRDRVARIGLGVILNLAKEREPVELARSVAGILEHMFKHSEETCQRLVAAGGLDAVLYWCRRTDPALLRHCALALGNCALHGGQAVQRRMVEKRAAEWLFPLAFSKEDELLRLHACLAVAVLATNKEVEREVERSGTLALVEPLVASLDPGRFARCLVDASDTSQGRGPDDLQRLVPLLDSNRLEAQCIGAFYLCAEAAIKSLQGKTKVFSDIGAIQSLKRLVSYSTNGTKSALAKRALRLLGEEVPRPILPSVPSWKEAEVQTWLQQIGFSKYCESFREQQVDGDLLLRLTEEELQTDLGMKSGITRKRFFRELTELKTFANYSTCDRSNLADWLGSLDPRFRQYTYGLVSCGLDRSLLHRVSEQQLLEDCGIHLGVHRARILTAAREMLHSPLPCTGGKPSGDTPDVFISYRRNSGSQLASLLKVHLQLHGFSVFIDVEKLEAGKFEDKLIQSVMGARNFVLVLSPGALDKCMQDHDCKDWVHKEIVTALSCGKNIVPIIDGFEWPEPQVLPEDMQAVLTFNGIKWSHEYQEATIEKIIRFLQGRSSRDSSAGSDTSLEGAAPMGPT

Assay [1] addresses B3. Description: SPR. Background: Surface plasmon resonance follows binding to a sensor surface in real time, without labels.
In a further assay the target is His-tagged PKM1 (human, UniProt P14618-2 1-531). Description: AlphaScreen or HTRF. A general note: In Alpha technology, singlet oxygen from a donor bead excites a nearby acceptor bead.

As a reminder, the Kd is the constant that tells how readily two partners part at equilibrium. Regarding B1, in assay [1], the Kd was determined as 2890 nM.
Same read-out and setting: the same measure for B2: 1310 nM.
In general, IC50 refers to the concentration that gives 50% inhibition. The low end stands for greater potency in that assay, the high end for weaker potency in that assay. Regarding B3, half-maximal inhibition with His-tagged PKM1 (IC50) was put at 3460 nM.
